Assay results published in CN115029318A.

Columns and labels:
[1] = target: CD3 on T cells of human PBMC (human); experiment: cell-based or functional assay
[2] = target: EGFR (epidermal growth factor receptor) on human glioma U87 cells (human) (UniProt P00533); experiment: cell-based or functional assay

B1: EGFR-CD3-EGFR MsAb (bispecific antibody, part only; not given: linkers and His tag, not shown: small tags and cut ends)
chain, part: ESGGGLTQPGGSLRLSCAASGMSTGMWHRPTPGRERELIALKAPWPGTAPSSWRFTISRDNASNTVYLQMANLNTEDTAVYFCHAGGLLEWELLVVAASWGQGTVSSQVKLEESGSELVQPGGPLRLSCAASANIFSRTEDDWIWYRQAPGKQRAFVAWITGLSTKIGRFTISVDKSKGTIYLQMNALKPEDTAVYYANAAEHASKVVEVSTSWGQGTVVTVSSESGGGLTQPGGSLRLSCAASGMSTGMWHRPTPGRERELIALKAPWPGTAPSSWRFTISRDNASNTVYLQMANLNTEDTAVYFCHAGGLLEWELLVVAASWGQGTVSS
Which 细胞杀伤率 (killing of GFP-labelled U87 cells by human PBMC, effector:target 5:1, 50 ng/mL antibody, 24 h, 7-AAD, high-content imaging) [1] does the source give for B1 here?
The 细胞杀伤率 (killing of GFP-labelled U87 cells by human PBMC, effector:target 5:1, 50 ng/mL antibody, 24 h, 7-AAD, high-content imaging) was over 80%.

And the 细胞杀伤率 (killing of GFP-labelled U87 cells by human PBMC, effector:target 5:1, 50 ng/mL antibody, 24 h, 7-AAD, high-content imaging) [2]?
Its 细胞杀伤率 (killing of GFP-labelled U87 cells by human PBMC, effector:target 5:1, 50 ng/mL antibody, 24 h, 7-AAD, high-content imaging) is over 80%.
